For three proteins, Km, kcat and kcat/Km results are on record in ChEMBL document CHEMBL1250451, “Mechanistic insights into a Ca2+-dependent family of alpha-mannosidases in a human gut symbiont” (Nat Chem Biol, 2010).

What all share (format): protein assay
Substrate in data set [1]: OC[C@H]1O[C@H](O[C@H]2[C@@H](O)[C@H](O)[C@@H](CO)O[C@@H]2O)[C@@H](O)[C@@H](O)[C@@H]1O
Briefly: (§1) Activity of Bacteroides thetaiotaomicron GH92 alpha-mannosidase 3990 E585A mutant assessed as as mannose release after 16 hrs by HPLC relative to wild type enzyme.

Substrate in data set [2]: O=[N+]([O-])c1ccc(O[C@H]2O[C@H](CO)[C@@H](O)[C@H](O)[C@@H]2O)cc1
Described as §1.

Substrate in data set [3]: OC[C@H]1O[C@H](O[C@H]2[C@@H](O)[C@H](O)[C@@H](CO)O[C@@H]2O)[C@@H](O)[C@@H](O)[C@@H]1O
Briefly: (§2) Ratio of Kcat to Km for Bacteroides thetaiotaomicron GH92 alpha-mannosidase 3990 E585A mutant assessed as as mannose release after 16 hrs by HPLC relative to wild type enzyme.

Substrate in data set [4]: O=[N+]([O-])c1ccc(O[C@H]2O[C@H](CO)[C@@H](O)[C@H](O)[C@@H]2O)cc1
The data set is described as §2.

Substrate in data set [5]: O=[N+]([O-])c1ccc(O[C@H]2O[C@H](CO)[C@@H](O)[C@H](O)[C@@H]2O)c([N+](=O)[O-])c1
The data set is described as §2.

Substrate in data set [6]: OC[C@H]1O[C@H](O[C@H]2[C@@H](O)[C@H](O)[C@@H](CO)O[C@@H]2O)[C@@H](O)[C@@H](O)[C@@H]1O
Briefly: (§3) Activity of Bacteroides thetaiotaomicron GH92 alpha-mannosidase 3990 D642A mutant assessed as as mannose release after 16 hrs by HPLC relative to wild type enzyme.

Substrate in data set [7]: O=[N+]([O-])c1ccc(O[C@H]2O[C@H](CO)[C@@H](O)[C@H](O)[C@@H]2O)cc1
The data set is described as §3.

Substrate in data set [8]: OC[C@H]1O[C@H](O[C@H]2[C@@H](O)[C@H](O)[C@@H](CO)O[C@@H]2O)[C@@H](O)[C@@H](O)[C@@H]1O
Briefly: (§4) Ratio of Kcat to Km for Bacteroides thetaiotaomicron GH92 alpha-mannosidase 3990 D642A mutant assessed as as mannose release after 16 hrs by HPLC relative to wild type enzyme.

Substrate in data set [9]: O=[N+]([O-])c1ccc(O[C@H]2O[C@H](CO)[C@@H](O)[C@H](O)[C@@H]2O)cc1
The data set is described as §4.

Substrate in data set [10]: O=[N+]([O-])c1ccc(O[C@H]2O[C@H](CO)[C@@H](O)[C@H](O)[C@@H]2O)c([N+](=O)[O-])c1
The data set is described as §4.

Substrate in data set [11]: OC[C@H]1O[C@H](O[C@H]2[C@@H](O)[C@H](O)[C@@H](CO)O[C@@H]2O)[C@@H](O)[C@@H](O)[C@@H]1O
The data set can be described thus: (§5) Activity of Bacteroides thetaiotaomicron GH92 alpha-mannosidase 3990 E533Q mutant assessed as as mannose release after 16 hrs by HPLC relative to wild type enzyme.

Substrate in data set [12]: O=[N+]([O-])c1ccc(O[C@H]2O[C@H](CO)[C@@H](O)[C@H](O)[C@@H]2O)cc1
The description is as §5.

Substrate in data set [13]: OC[C@H]1O[C@H](O[C@H]2[C@@H](O)[C@H](O)[C@@H](CO)O[C@@H]2O)[C@@H](O)[C@@H](O)[C@@H]1O
The data set can be described thus: (§6) Ratio of Kcat to Km for Bacteroides thetaiotaomicron GH92 alpha-mannosidase 3990 E533Q mutant assessed as as mannose release after 16 hrs by HPLC relative to wild type enzyme.

Substrate in data set [14]: O=[N+]([O-])c1ccc(O[C@H]2O[C@H](CO)[C@@H](O)[C@H](O)[C@@H]2O)cc1
The data set is described as §6.

Substrate in data set [15]: O=[N+]([O-])c1ccc(O[C@H]2O[C@H](CO)[C@@H](O)[C@H](O)[C@@H]2O)c([N+](=O)[O-])c1
The data set is described as §6.

B1: Alpha-1,2-mannosidase (BT_3990) (Bacteroides thetaiotaomicron), Q8A0N1 E585A (protein)
chain: MKRLLLIACILNCTLLSQAKDWTQYVNPLMGSQSTFELSTGNTYPAIARPWGMNFWTPQTGKMGDGWQYTYTANKIRGFKQTHQPSPWINDYGQFSIMPIVGQPVFDEEKRASWFAHKGEVATPYYYKVYLAEHDIVTEMTPTERAVLFRFTFPENDHSYVVVDAFDKGSYIKIIPEENKIIGYTTRNSGGVPENFKNYFIIEFDKPFTYKATVENGNLQENVAEQTTDHAGAIIGFKTRKGEQVNARIASSFISFEQAAANMNELGKDNIEQLAQKGKDAWNQVLGKIEVEGGNLDQYRTFYSCLYRSLLFPRKFYELDANGQPIHYSPYNGQVLPGYMFTDTGFWDTFRCLFPLLNLMYPSVNKEMQEGLINTYLESGFFPEWASPGHRGCMVGNNSASILVDAYMKGVKVDDIKTLYEGLIHGTENVHPEVSSTGRLGYEYYNKLGYVPYDVKINENAARTLEYAYDDWCIYRLAKELKRPKKEISLFAKRAMNYKNLFDKESKLMRGRNEDGTFQSPFSPLKWGDAFTEGNSWHYTWSVFHDPQGLIDLMGGKEMFVTMMDSVFAVPPIFDDSYYGQVIHAIREMTVMNMGNYAHGNQPIQHMIYLYDYAGQPWKAQYWLRQVMDRMYTPGPDGYCGDEDNGQTSAWYVFSALGFYPVCPGTDEYVMGTPLFKKATLHFENGNSLVIDAPNNSTENFYIDSMSFNGADHTKNYLRHEDLFKGGTIKVDMSNRPNLNRGTKEEDMPYSFSKE
On to B1, for which the Km is 2300 µM in [1] and “Not Active” in data set [2]. Also, the kcat in [1] is 0.00733 s⁻¹; in [2] it was “Not Active”. Further, the values for the kcat/Km in data set [3], in data set [4] and in [5] were 3.17 M⁻¹ s⁻¹, 5.5 M⁻¹ s⁻¹ and 9330 M⁻¹ s⁻¹, respectively.

B2: Alpha-1,2-mannosidase (BT_3990) (Bacteroides thetaiotaomicron), Q8A0N1 D642A (protein)
chain: MKRLLLIACILNCTLLSQAKDWTQYVNPLMGSQSTFELSTGNTYPAIARPWGMNFWTPQTGKMGDGWQYTYTANKIRGFKQTHQPSPWINDYGQFSIMPIVGQPVFDEEKRASWFAHKGEVATPYYYKVYLAEHDIVTEMTPTERAVLFRFTFPENDHSYVVVDAFDKGSYIKIIPEENKIIGYTTRNSGGVPENFKNYFIIEFDKPFTYKATVENGNLQENVAEQTTDHAGAIIGFKTRKGEQVNARIASSFISFEQAAANMNELGKDNIEQLAQKGKDAWNQVLGKIEVEGGNLDQYRTFYSCLYRSLLFPRKFYELDANGQPIHYSPYNGQVLPGYMFTDTGFWDTFRCLFPLLNLMYPSVNKEMQEGLINTYLESGFFPEWASPGHRGCMVGNNSASILVDAYMKGVKVDDIKTLYEGLIHGTENVHPEVSSTGRLGYEYYNKLGYVPYDVKINENAARTLEYAYDDWCIYRLAKELKRPKKEISLFAKRAMNYKNLFDKESKLMRGRNEDGTFQSPFSPLKWGDAFTEGNSWHYTWSVFHDPQGLIDLMGGKEMFVTMMDSVFAVPPIFDDSYYGQVIHEIREMTVMNMGNYAHGNQPIQHMIYLYDYAGQPWKAQYWLRQVMDRMYTPGPDGYCGAEDNGQTSAWYVFSALGFYPVCPGTDEYVMGTPLFKKATLHFENGNSLVIDAPNNSTENFYIDSMSFNGADHTKNYLRHEDLFKGGTIKVDMSNRPNLNRGTKEEDMPYSFSKE
Consider B2, for which the Km in data set [6] is 690 µM; in data set [7], “Not Active”. The kcat in data set [6] is 0.000533 s⁻¹; in [7], “Not Active”. Moreover, the specificity constant (kcat/Km) is 0.783 M⁻¹ s⁻¹ in data set [8], “Not Active” in data set [9] and 0.383 M⁻¹ s⁻¹ in data set [10].

B3: Alpha-1,2-mannosidase (BT_3990) (Bacteroides thetaiotaomicron), Q8A0N1 E533Q (protein)
chain: MKRLLLIACILNCTLLSQAKDWTQYVNPLMGSQSTFELSTGNTYPAIARPWGMNFWTPQTGKMGDGWQYTYTANKIRGFKQTHQPSPWINDYGQFSIMPIVGQPVFDEEKRASWFAHKGEVATPYYYKVYLAEHDIVTEMTPTERAVLFRFTFPENDHSYVVVDAFDKGSYIKIIPEENKIIGYTTRNSGGVPENFKNYFIIEFDKPFTYKATVENGNLQENVAEQTTDHAGAIIGFKTRKGEQVNARIASSFISFEQAAANMNELGKDNIEQLAQKGKDAWNQVLGKIEVEGGNLDQYRTFYSCLYRSLLFPRKFYELDANGQPIHYSPYNGQVLPGYMFTDTGFWDTFRCLFPLLNLMYPSVNKEMQEGLINTYLESGFFPEWASPGHRGCMVGNNSASILVDAYMKGVKVDDIKTLYEGLIHGTENVHPEVSSTGRLGYEYYNKLGYVPYDVKINENAARTLEYAYDDWCIYRLAKELKRPKKEISLFAKRAMNYKNLFDKESKLMRGRNEDGTFQSPFSPLKWGDAFTQGNSWHYTWSVFHDPQGLIDLMGGKEMFVTMMDSVFAVPPIFDDSYYGQVIHEIREMTVMNMGNYAHGNQPIQHMIYLYDYAGQPWKAQYWLRQVMDRMYTPGPDGYCGDEDNGQTSAWYVFSALGFYPVCPGTDEYVMGTPLFKKATLHFENGNSLVIDAPNNSTENFYIDSMSFNGADHTKNYLRHEDLFKGGTIKVDMSNRPNLNRGTKEEDMPYSFSKE
For the protein B3, the Michaelis constant (Km) is 960 µM in data set [11] and 10000 µM in data set [12]. In addition, the figures for the turnover number (kcat) in data set [11] and in data set [12] were 0.000233 s⁻¹ and 0.147 s⁻¹, respectively. The kcat/Km in data set [13] stood at 0.25 M⁻¹ s⁻¹; in data set [14] it was 14.3 M⁻¹ s⁻¹; in data set [15], 10300 M⁻¹ s⁻¹.

The Km is the substrate concentration at which the rate is half of its maximum. A word on the kcat: it is the maximal rate divided by the concentration of active sites. In general, kcat/Km refers to the turnover number divided by the Michaelis constant.
